Measured values from patent publication US20120128689A1 (GlaxoSmithKline, published 2012).
Numbering of substitutions follows the chain as printed.

T1: cyno IL-23 (cyno, limits assumed)
T1 construct: Heterodimer of p19 and p40; also called cynomolgus IL-23
T1 chain 1: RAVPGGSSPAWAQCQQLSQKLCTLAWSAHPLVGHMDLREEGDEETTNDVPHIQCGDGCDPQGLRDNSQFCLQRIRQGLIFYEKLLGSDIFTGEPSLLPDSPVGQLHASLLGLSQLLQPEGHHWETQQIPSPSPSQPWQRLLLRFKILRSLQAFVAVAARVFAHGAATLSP
T1 chain 2: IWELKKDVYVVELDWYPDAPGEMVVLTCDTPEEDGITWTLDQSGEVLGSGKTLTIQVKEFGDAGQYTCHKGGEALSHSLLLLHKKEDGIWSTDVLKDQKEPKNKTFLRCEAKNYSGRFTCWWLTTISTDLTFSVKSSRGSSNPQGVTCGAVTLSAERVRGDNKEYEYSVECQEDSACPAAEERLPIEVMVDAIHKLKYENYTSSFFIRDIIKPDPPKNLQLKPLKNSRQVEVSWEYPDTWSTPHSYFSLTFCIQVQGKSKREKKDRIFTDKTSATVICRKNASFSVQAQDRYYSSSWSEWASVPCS

T2: human IL-23 (human, UniProt Q9NPF7 20-189; P29460 23-328)
T2 construct: Heterodimer of p19 and p40; also called hIL-23
T2 sequence 1: T1 chain 1 with A12T, R75H, P131L
T2 sequence 2: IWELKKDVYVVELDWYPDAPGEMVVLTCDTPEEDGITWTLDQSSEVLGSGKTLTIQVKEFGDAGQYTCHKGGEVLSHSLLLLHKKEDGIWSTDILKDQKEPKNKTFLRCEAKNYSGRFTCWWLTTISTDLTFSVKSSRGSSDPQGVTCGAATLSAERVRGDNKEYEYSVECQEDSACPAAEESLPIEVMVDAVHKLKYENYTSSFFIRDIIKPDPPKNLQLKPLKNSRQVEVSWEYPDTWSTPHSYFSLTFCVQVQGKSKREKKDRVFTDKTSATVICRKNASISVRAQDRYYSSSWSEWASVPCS

B1: A5M20 (antibody, human IgG1, kappa, V domains shown)
VH: QVQLVQSGAEVKKPGSSVKVSCKASGYTFTSYGITWVRQAPGQGLEWMGENYPRSGNTYYNEKFKGRVTITADKSTSTAYMELSSLRSEDTAVYYCARAEFISTVVAPYYYALDYWGQGTLVTVSS
VL: DIVMTQSPDSLAVSLGERATINCKASKKVTIFGSISALHWYQQKPGQPPKLIYNLAKLESGVPDRFSGSGSGTDFTLTISSLQAEDVAVYYCLQNKEVPYTFGGGTKVEIKR
B2: A5M21 (antibody, human IgG1, kappa, V domains shown)
VH: B1 VH
VL: B1 VL with F32Y, I35T, L58P
B3: A3M0 (antibody, human IgG1, kappa, V domains shown)
VH: B1 VH with A99S
VL: B1 VL with L55G
notes: human gamma1 and kappa constant regions; Tested as HEK supernatant and as purified antibody; also called A3M0 purified
B4: A24AM18 (antibody, human IgG1, kappa, V domains shown)
VH: B1 VH with T58I
VL: B1 VL with I35T, L58P
B5: A3M18 (antibody, human IgG1, kappa, V domains shown)
VH: B1 VH with A99S
VL: B1 VL with I35T, L58P
B6: A6M20 (antibody, human IgG1, kappa, V domains shown)
VH: B1 VH with A99V
VL: B1 VL
B7: A5M12 (antibody, human IgG1, V domains shown)
VH: B1 VH
VL: DIVMTQSPDSLAVSLGERATINCKASKKVTIYGSTSALHWYQQKPGQPPKLIYNGAKPESGVPDRFSGSGSGTDFTLTISSLQAEDVAVYYCLQNKEVPYTFGGGTKVEIK
B8: A24AM4 (antibody, human IgG1, kappa, V domains shown)
VH: B1 VH with T58I
VL: B1 VL with I35T, L55G, L58P
B9: A5M0 (antibody, human IgG1, kappa, V domains shown)
VH: B1 VH
VL: B1 VL with L55G

Molecular target: T1, cyno IL-23
Assay: SPR Biacore T100, mAb from HEK supernatant captured on anti-human IgG, one concentration of cyno IL-23 (256 nM)
Protocol: (§1) An anti-human IgG (Biacore BR-1008-39) was immobilised on a Biacore CM5 chip by primary amine coupling in accordance with the manufacturer's instructions. Anti IL-23 antibodies were captured on this surface and after a period of stabilisation, IL-23 (cyno or human) was passed over the antibody captured surface and a binding sensorgram was obtained. […] All runs were double referenced with a buffer injection over the captured antibody surface. Data was analysed using the 1:1 model using the software inherent to the Biacore T100. Analysis was carried out at 25° C. using HBS-EP buffer. Data presented in Tables 1 and 2 are on tissue culture supernatants of HEK cells transiently expressing the antibody of interest unless otherwise indicated.

| Kd [nM] | koff [s⁻¹] | kon [M⁻¹ s⁻¹] | Binder |
| --- | --- | --- | --- |
| 0.115 | 0.000306 | 2.66e+06 | B1 |
| 0.169 | 0.000123 | 727000 | B2 |
| 0.365 | 0.000484 | 1.33e+06 | B3 |
| 0.092 | 0.000176 | 1.91e+06 | B4 |
| 0.185 | 0.000163 | 883000 | B5 |
| 0.136 | 0.000497 | 3.65e+06 | B6 |

Each binder was assayed against T2, human IL-23 (assay: inhibition ELISA: antibody pre-incubated with a constant concentration of human IL-23, IL-23 bound to plate-coated human IL23R Fc chimera detected with biotinylated anti-human IL12, OD450).
Protocol: Plates were coated with human IL23R Fc chimera at […] (phosphate buffered saline). 50 μl/well of this mixture was incubated overnight at 4° C. The plates were then washed three times with Phosphate Buffered Saline with 0.05% Tween 20 (PBST). Plates were blocked with 4% skim milk powder (Fluka BioChemika #70166) PBST 100 μl/well for a minimum of 1 hour at room temperature. The plates were then washed three times with Phosphate Buffered Saline+0.05% Tween 20 (PBST). Various concentrations of antibody were incubated in a separate plate with a constant concentration of IL-23 for 1 hour at room temperature. 50 ul of each mixture were transferred to the assay plate and incubated at RT for 1 hr. They were then washed three times with Phosphate Buffered Saline+0.05% Tween 20 (PBST). Bound IL23 was detected by anti human IL12 Biotin labelled Ab (R&D systems BAF219) diluted to 100 ng/ml in 4% skim milk powder (Fluka BioChemika #70166) PBST. 50 μl/well of the biotinylated antibody was added and incubated at RT for 1 hour. The plates were then washed three times with Phosphate Buffered Saline+0.05% Tween 20 (PBST). SA HRP (GE healthcare RPN4401) was diluted 1/4000 in 4% skim milk powder (Fluka BioChemika #70166) PBS, 50 μl/well was added to the plates. The plates were then washed three times with Phosphate Buffered Saline+0.05% Tween 20 (PBST). 50 ul/well of TMB was added to the plates and incubated at RT for 15 min. 25 μl/well of 3 MH₂SO₄ was added to the wells already containing TMB. The plate was read at OD450 nm using the SOftmaxPRO versamax plate reader.

| IC50 (read off the curve) [nM] | Binder |
| --- | --- |
| ~0.2 | B1 |
| ~0.2 | B7 |
| ~0.2 | B2 |
| ~0.2 | B8 |
| ~0.7 | B3 |
| ~0.2 | B4 |
| ~0.3 | B9 |

Each binder was assayed against T2, human IL-23 (assay: SPR Biacore T100, purified mAb captured on anti-human IgG, human IL-23 64-0.062 nM).

| Kd [nM] | koff [s⁻¹] | kon [M⁻¹ s⁻¹] | Binder |
| --- | --- | --- | --- |
| 0.197 | 0.000235 | 1.19e+06 | B3 |

Each binder was assayed against T2, human IL-23 (assay: cell-based or functional assay).

| IC50 (inhibition of IL-23 driven STAT3 phosphorylation in human activated T cell blasts) [nM] | Binder |
| --- | --- |
| 0.0685 | B1 |
| 0.0384 | B2 |
| 0.115 | B3 |
| 0.0473 | B4 |

Molecular target: T1, cyno IL-23
Assay: SPR Biacore, purified mAb captured on anti-human IgG, cyno IL-23 64-0.062 nM
Protocol: as §1
(§2) This experiment was repeated with purified IL-23 antibodies and data shown in Table 3 was generated using 64, 16, 4, 1, 0.25 and 0.062 nM concentrations of human and cyno IL-23.

| Kd [nM] | koff [s⁻¹] | kon [M⁻¹ s⁻¹] | Binder |
| --- | --- | --- | --- |
| 0.086 | 0.000176 | 2.05e+06 | B1 |
| 0.093 | 0.000134 | 1.45e+06 | B7 |
| 0.075 | 0.00012 | 1.6e+06 | B2 |
| 0.085 | 0.000147 | 1.74e+06 | B8 |
| 0.302 | 0.000298 | 984000 | B3 |
| 0.07 | 0.000132 | 1.88e+06 | B4 |
| 0.173 | 0.000224 | 1.3e+06 | B9 |

Each binder was assayed against T2, human IL-23 (assay: SPR Biacore T100, mAb from HEK supernatant captured on anti-human IgG, human IL-23 64-0.062 nM).
Protocol: as §1

| Kd [nM] | koff [s⁻¹] | kon [M⁻¹ s⁻¹] | Binder |
| --- | --- | --- | --- |
| 0.066 | 0.000159 | 2.41e+06 | B1 |
| 0.065 | 0.000113 | 1.73e+06 | B2 |
| 0.207 | 0.000239 | 1.16e+06 | B3 |
| 0.051 | 0.000122 | 2.4e+06 | B4 |
| 0.066 | 0.000115 | 1.73e+06 | B5 |
| 0.078 | 0.000205 | 2.62e+06 | B6 |

Molecular target: T1, cyno IL-23
Assay: SPR Biacore T100, purified mAb captured on anti-human IgG, one concentration of cyno IL-23 (256 nM)

| Kd [nM] | koff [s⁻¹] | kon [M⁻¹ s⁻¹] | Binder |
| --- | --- | --- | --- |
| 0.332 | 0.000583 | 1.76e+06 | B3 |

Each binder was assayed against T2, human IL-23 (assay: SPR Biacore, purified mAb captured on anti-human IgG, human IL-23 64-0.062 nM).
Protocol: as §1, §2

| Kd [nM] | koff [s⁻¹] | kon [M⁻¹ s⁻¹] | Binder |
| --- | --- | --- | --- |
| 0.061 | 0.00014 | 2.29e+06 | B1 |
| 0.08 | 0.000132 | 1.66e+06 | B7 |
| 0.064 | 0.000112 | 1.74e+06 | B2 |
| 0.065 | 0.000132 | 2.02e+06 | B8 |
| 0.186 | 0.000216 | 1.16e+06 | B3 |
| 0.053 | 0.000115 | 2.16e+06 | B4 |
| 0.114 | 0.000175 | 1.54e+06 | B9 |
